The labels stand for the following.
B1: C1orf137 (parent)
chain: LPQETNLTLKVCKPQAPQKLDPTL
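Also: lentivirally expressed fusions sorted by FACS into six bins by GFP to DsRed ratio, PSI derived from sequencing read proportions per bin multiplied by bin number.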

In the series the parent is B1. The experiment in a line: protein stability index of a GFP-peptide fusion (GPS, HEK-293T) (PSI 1-6); higher = more stable. The conditions noted are these: c terminus: a fixed tail appended.
Take LPQETNLTLKVCKPQVPQKLDPTL [A16V]: the protein stability index worked out at 3.94. In the case of LPQETNLTLKVCKPQIPQKLDPTL [A16I], the protein stability index came out at 3.56. In the case of LPQETNLTLKVCKPQCPQKLDPTL [A16C] it was 3.6; in that of LPQETNLTLKVCKPQNPQKLDPTL [A16N], 4.04. In the case of LPQETNLTLKVCKPQMPQKLDPTL [A16M] it was 3.54; in that of LPQETNLTLKVCKPQQPQKLDPTL [A16Q], 3.96; in that of LPQETNLTLKVCKPQSPQKLDPTL [A16S], 4.02. With LPQETNLTLKVCKPQGPQKLDPTL [A16G], the protein stability index turned out to be 3.98. In the case of LPQETNLTLKVCKPQDPQKLDPTL [A16D] it was 4.41; in that of LPQETNLTLKVCKPQEPQKLDPTL [A16E], 4.45; in that of LPQETNLTLKVCKPQRPQKLDPTL [A16R], 3.58. LPQETNLTLKVCKPQFPQKLDPTL [A16F]: the protein stability index worked out at 2.92. Regarding LPQETNLTLKVCKPQHPQKLDPTL [A16H], the protein stability index worked out at 4.14.

For the variant LPQETNLTLKVCKPQPPQKLDPTL [A16P], the protein stability index came to 3.62. In the case of LPQETNLTLKVCKPQKPQKLDPTL [A16K] it was 4.15; in that of LPQETNLTLKVCKPQLPQKLDPTL [A16L], 3.69; in that of LPQETNLTLKVCKPQYPQKLDPTL [A16Y], 3.38. In the case of LPQETNLTLKVCKPQTPQKLDPTL [A16T] it was 4.07; in that of LPQETNLTLKVCKPQAPQFLDPTL [K19F], 2.96. LPQETNLTLKVCKPQAPQELDPTL [K19E]: the protein stability index was 3.77.

Consider LPQETNLTLKVCKPQAPQALDPTL [K19A], for which the protein stability index amounted to 3.8.

As for LPQETNLTLKVCKPQAPQGLDPTL [K19G], the protein stability index stood at 3.5.

As for LPQETNLTLKVCKPQAPQCLDPTL [K19C], the protein stability index was 2.92. In the case of LPQETNLTLKVCKPQAPQDLDPTL [K19D] it was 3.92. In the case of LPQETNLTLKVCKPQAPQHLDPTL [K19H] it was 3.78; in that of LPQETNLTLKVCKNQAPQKLDPTL [P14N], 4.72; in that of LPQETNLTLKVCKHQAPQKLDPTL [P14H], 4.07. Next, LPQETNLTLKVCKDQAPQKLDPTL [P14D]: 4.76; LPQETNLTLKVCKGQAPQKLDPTL [P14G]: 4.55.

Turning to LPQETNLTLKVCKIQAPQKLDPTL [P14I], the protein stability index was 2.76. In the case of LPQETNLTLKVCKKQAPQKLDPTL [P14K], the protein stability index came out at 4.1. Next, LPQETNLTLKVCKWQAPQKLDPTL [P14W]: 3.47. In the case of LPQETNLTLKVCKSQAPQKLDPTL [P14S] it was 4.27.

For LPQETNLTLKVCKAQAPQKLDPTL [P14A], the protein stability index turned out to be 3.59. In the case of LPQETNLTLKVCKLQAPQKLDPTL [P14L] it was 2.81. Next, LPQETNLTLKVCKTQAPQKLDPTL [P14T]: 4.16. In the case of LPQETNLTLKVCKMQAPQKLDPTL [P14M] it was 3.08; in that of LPQETNLTLKVCKYQAPQKLDPTL [P14Y], 3.37; in that of LPQETNLTLKVCKCQAPQKLDPTL [P14C], 3.02. In the case of LPQETNLTLKVCKEQAPQKLDPTL [P14E], the protein stability index is 4.71.

For the variant LPQETNLTLKVCKQQAPQKLDPTL [P14Q], the protein stability index turned out to be 4.41. In the case of LPQETNLTLKVCKRQAPQKLDPTL [P14R], the protein stability index was determined as 4.27.

For the variant LPQETNLTLKVCKVQAPQKLDPTL [P14V], the protein stability index came out at 3.55. In the case of LPQETNLTLKVCKFQAPQKLDPTL [P14F] it was 2.71; in that of LPQETNLTLLVCKPQAPQKLDPTL [K10L], 2.55; in that of LPQETNLTLQVCKPQAPQKLDPTL [K10Q], 3.65. Take LPQETNLTLPVCKPQAPQKLDPTL [K10P]: the protein stability index stood at 4.17.

Turning to LPQETNLTLEVCKPQAPQKLDPTL [K10E], the protein stability index was 4.5. In the case of LPQETNLTLTVCKPQAPQKLDPTL [K10T] it was 3.46; in that of LPQETNLTLNVCKPQAPQKLDPTL [K10N], 4.37. LPQETNLTLAVCKPQAPQKLDPTL [K10A]: the protein stability index was determined as 4.61.

Consider LPQETNLTLHVCKPQAPQKLDPTL [K10H], for which the protein stability index was 3.48. Next, LPQETNLTLGVCKPQAPQKLDPTL [K10G]: 3.78; LPQETNLTLSVCKPQAPQKLDPTL [K10S]: 4.01. As to LPQETNLTLCVCKPQAPQKLDPTL [K10C], the protein stability index is 3.66.

Turning to LPQETNLTLIVCKPQAPQKLDPTL [K10I], the protein stability index was found to be 2.13. Next, LPQETNLTLMVCKPQAPQKLDPTL [K10M]: 2.95; LPQETNLTLFVCKPQAPQKLDPTL [K10F]: 2.18; LPQETNLTLRVCKPQAPQKLDPTL [K10R]: 3.03. Next, LPQETNLTLWVCKPQAPQKLDPTL [K10W]: 2.17. In the case of LPQETNLTLDVCKPQAPQKLDPTL [K10D] it was 4.56; in that of LPQETNLTLVVCKPQAPQKLDPTL [K10V], 2.7; in that of LPQETNLTLYVCKPQAPQKLDPTL [K10Y], 2.98.

Turning to LPQETNLTLKVHKPQAPQKLDPTL [C12H], the protein stability index was found to be 4.66. Next, LPQETNLTLKVRKPQAPQKLDPTL [C12R]: 4.14; LPQETNLTLKVVKPQAPQKLDPTL [C12V]: 3.65; LPQETNLTLKVAKPQAPQKLDPTL [C12A]: 5.06. For LPQETNLTLKVSKPQAPQKLDPTL [C12S], the protein stability index stood at 4.07.

Regarding LPQETNLTLKVLKPQAPQKLDPTL [C12L], the protein stability index was 4.06.

With LPQETNLTLKVQKPQAPQKLDPTL [C12Q], the protein stability index turned out to be 4.1. Next, LPQETNLTLKVDKPQAPQKLDPTL [C12D]: 4.79; LPQETNLTLKVKKPQAPQKLDPTL [C12K]: 4.43. In the case of LPQETNLTLKVWKPQAPQKLDPTL [C12W] it was 4.28; in that of LPQETNLTLKVTKPQAPQKLDPTL [C12T], 4.62; in that of LPQETNLTLKVFKPQAPQKLDPTL [C12F], 3.7.

On to LPQETNLTLKVIKPQAPQKLDPTL [C12I], for which the protein stability index was 3.9.

On to LPQETNLTLKVGKPQAPQKLDPTL [C12G], for which the protein stability index came to 4.81. Next, LPQETNLTLKVMKPQAPQKLDPTL [C12M]: 4.07; LPQETNLTLKVYKPQAPQKLDPTL [C12Y]: 3.64; LPQETNLTLKVEKPQAPQKLDPTL [C12E]: 4.39.

As for LPQETNLTLKVNKPQAPQKLDPTL [C12N], the protein stability index is 4.31. In the case of LPQETNLTLKVPKPQAPQKLDPTL [C12P] it was 4.73; in that of LPQETNLTNKVCKPQAPQKLDPTL [L9N], 4.54; in that of LPQETNLTTKVCKPQAPQKLDPTL [L9T], 4.67.

For LPQETNLTWKVCKPQAPQKLDPTL [L9W], the protein stability index turned out to be 3.15.

Consider LPQETNLTVKVCKPQAPQKLDPTL [L9V], for which the protein stability index is 4.14. Next, LPQETNLTQKVCKPQAPQKLDPTL [L9Q]: 4.59. Regarding LPQETNLTRKVCKPQAPQKLDPTL [L9R], the protein stability index is 4.58. In the case of LPQETNLTIKVCKPQAPQKLDPTL [L9I] it was 4; in that of LPQETNLTYKVCKPQAPQKLDPTL [L9Y], 4.35; in that of LPQETNLTKKVCKPQAPQKLDPTL [L9K], 4.16. On to LPQETNLTMKVCKPQAPQKLDPTL [L9M], for which the protein stability index stood at 4.03. LPQETNLTPKVCKPQAPQKLDPTL [L9P]: the protein stability index worked out at 3.69.

On to LPQETNLTSKVCKPQAPQKLDPTL [L9S], for which the protein stability index turned out to be 3.63.

The values are drawn from the supplement of paper PMC10567573.
